Data set [1] deals with soluble fibrin monomers (DESAFIB).
Data set [2] addresses stimulatory thirteen amino acid peptide P368.
The target in the next data set is T1, lys-plasminogen, P00747.
T1 chain: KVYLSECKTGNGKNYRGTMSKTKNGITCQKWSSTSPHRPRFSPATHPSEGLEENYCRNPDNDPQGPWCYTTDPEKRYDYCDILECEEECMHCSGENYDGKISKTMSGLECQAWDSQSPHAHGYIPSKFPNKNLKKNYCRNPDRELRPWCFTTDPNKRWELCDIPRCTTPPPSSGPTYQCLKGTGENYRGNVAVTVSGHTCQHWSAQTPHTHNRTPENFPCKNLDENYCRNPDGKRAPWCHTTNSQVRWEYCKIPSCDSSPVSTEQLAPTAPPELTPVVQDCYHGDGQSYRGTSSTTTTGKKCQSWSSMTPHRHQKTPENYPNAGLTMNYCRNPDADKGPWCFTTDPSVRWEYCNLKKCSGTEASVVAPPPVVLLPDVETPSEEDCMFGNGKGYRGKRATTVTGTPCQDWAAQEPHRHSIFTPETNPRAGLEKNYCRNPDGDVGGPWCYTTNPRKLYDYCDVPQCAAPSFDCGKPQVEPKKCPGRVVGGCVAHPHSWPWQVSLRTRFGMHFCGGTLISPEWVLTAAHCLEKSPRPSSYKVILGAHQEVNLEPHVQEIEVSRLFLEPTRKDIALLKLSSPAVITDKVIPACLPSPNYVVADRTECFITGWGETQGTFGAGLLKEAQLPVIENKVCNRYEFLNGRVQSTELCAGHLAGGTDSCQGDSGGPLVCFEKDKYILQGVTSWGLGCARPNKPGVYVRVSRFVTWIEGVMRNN

Several values for one entry are separate records, joined by “and”; a condition that tells them apart may be missing. Equal entries are not always repeated.

B1: wild type human t-PA, two-chain form (protein)
chain 1: SYQVICRDEKTQMIYQQHQSWLRPVLRSNRVEYCWCNSGRAQCHSVPVKSCSEPRCFNGGTCQQALYFSDFVCQCPEGFAGKCCEIDTRATCYEDQGISYRGTWSTAESGAECTNWNSSALAQKPYSGRRPDAIRLGLGNHNYCRNPDRDSKPWCYVFKAGKYSSEFCSTPACSEGNSDCYFGNGSAYRGTHSLTESGASCLPWNSMILIGKVYTAQNPSAQALGLGKHNYCRNPDGDAKPWCHVLKNRRLTWEYCDVPSCSTCGLRQYSQPQFR
chain 2: IKGGLFADIASHPWQAAIFAKHRRSPGERFLCGGILISSCWILSAAHCFQERFPPHHLTVILGRTYRVVPGEEEQKFEVEKYIVHKEFDDDTYDNDIALLQLKSDSSRCAQESSVVRTVCLPPADLQLPDWTECELSGYGKHEALSPFYSERLKEAHVRLYPSSRCTSQHLLNRTVTDNMLCAGDTRSGGPQANLHDACQGDSGGPLVCLNDGRMTLVGIISWGLGCGQKDVPGVYTKVTNYLDWIRDNMRP
Consider B1, for which the “stimulation of plasminogen activation by co-factor (indirect chromogenic assay)” value (shortened to “stimulation of plasminogen activation”) with fibrinogen is on record as “strongly stimulated”. In data set [1], the Fold stimulation of kcat/Km by fibrin is 460 fold and 250 fold; the “fibrin selectivity factor (specific activity in the presence of fibrin over that in the presence of fibrinogen)” value is given as 1.5 for two-chain t-PA; the “stimulation of plasminogen activation” value is “strongly stimulated”. The “stimulation of plasminogen activation” value in data set [2] is “strongly stimulated”. For the same protein, in the data set with lys-plasminogen, P00747, the Kcat of plasminogen activation in the absence of a cofactor is 0.093 s⁻¹ and 0.16 s⁻¹; the Kcat of plasminogen activation in the presence of fibrin is 0.11 s⁻¹ and 0.08 s⁻¹; the Kcat/Km of plasminogen activation in the absence of a cofactor was 14000 M⁻¹ s⁻¹ and 16000 M⁻¹ s⁻¹; the Kcat/Km of plasminogen activation in the presence of fibrin is 6.5e+06 M⁻¹ s⁻¹ and 4e+06 M⁻¹ s⁻¹. Also, in the data set with lys-plasminogen, P00747, the Km of plasminogen activation in the absence of a cofactor was 6.7 µM and 10 µM; the Km of plasminogen activation in the presence of fibrin is 0.017 µM and 0.02 µM.

B2: t-PA/H417E, two-chain form (protein)
chain 1: SYQVICRDEKTQMIYQQHQSWLRPVLRSNRVEYCWCNSGRAQCHSVPVKSCSEPRCFNGGTCQQALYFSDFVCQCPEGFAGKCCEIDTRATCYEDQGISYRGTWSTAESGAECTNWNSSALAQKPYSGRRPDAIRLGLGNHNYCRNPDRDSKPWCYVFKAGKYSSEFCSTPACSEGNSDCYFGNGSAYRGTHSLTESGASCLPWNSMILIGKVYTAQNPSAQALGLGKHNYCRNPDGDAKPWCHVLKNRRLTWEYCDVPSCSTCGLRQYSQPQFR
chain 2: IKGGLFADIASHPWQAAIFAKHRRSPGERFLCGGILISSCWILSAAHCFQERFPPHHLTVILGRTYRVVPGEEEQKFEVEKYIVHKEFDDDTYDNDIALLQLKSDSSRCAQESSVVRTVCLPPADLQLPDWTECELSGYGKEEALSPFYSERLKEAHVRLYPSSRCTSQHLLNRTVTDNMLCAGDTRSGGPQANLHDACQGDSGGPLVCLNDGRMTLVGIISWGLGCGQKDVPGVYTKVTNYLDWIRDNMRP
Protein B2 returned a Fold stimulation of kcat/Km by fibrin in data set [1] of 410 fold. In the data set with lys-plasminogen, P00747, the Kcat of plasminogen activation in the absence of a cofactor was 0.099 s⁻¹, the Kcat of plasminogen activation in the presence of fibrin stood at 0.1 s⁻¹, the Kcat/Km of plasminogen activation in the absence of a cofactor stood at 11000 M⁻¹ s⁻¹ and the Kcat/Km of plasminogen activation in the presence of fibrin stood at 4.5e+06 M⁻¹ s⁻¹. Besides, in the data set with lys-plasminogen, P00747, the Km of plasminogen activation in the absence of a cofactor amounted to 8.7 µM and the Km of plasminogen activation in the presence of fibrin was 0.022 µM.

B3: t-PA/H417D, two-chain form (protein)
chain 1: SYQVICRDEKTQMIYQQHQSWLRPVLRSNRVEYCWCNSGRAQCHSVPVKSCSEPRCFNGGTCQQALYFSDFVCQCPEGFAGKCCEIDTRATCYEDQGISYRGTWSTAESGAECTNWNSSALAQKPYSGRRPDAIRLGLGNHNYCRNPDRDSKPWCYVFKAGKYSSEFCSTPACSEGNSDCYFGNGSAYRGTHSLTESGASCLPWNSMILIGKVYTAQNPSAQALGLGKHNYCRNPDGDAKPWCHVLKNRRLTWEYCDVPSCSTCGLRQYSQPQFR
chain 2: IKGGLFADIASHPWQAAIFAKHRRSPGERFLCGGILISSCWILSAAHCFQERFPPHHLTVILGRTYRVVPGEEEQKFEVEKYIVHKEFDDDTYDNDIALLQLKSDSSRCAQESSVVRTVCLPPADLQLPDWTECELSGYGKDEALSPFYSERLKEAHVRLYPSSRCTSQHLLNRTVTDNMLCAGDTRSGGPQANLHDACQGDSGGPLVCLNDGRMTLVGIISWGLGCGQKDVPGVYTKVTNYLDWIRDNMRP
In turn, B3 had a Fold stimulation of kcat/Km by fibrin in data set [1] of 290 fold. Also, in the data set with lys-plasminogen, P00747, the Kcat of plasminogen activation in the absence of a cofactor came to 0.11 s⁻¹, the Kcat of plasminogen activation in the presence of fibrin stood at 0.11 s⁻¹, the Kcat/Km of plasminogen activation in the absence of a cofactor stood at 16000 M⁻¹ s⁻¹ and the Kcat/Km of plasminogen activation in the presence of fibrin was 4.6e+06 M⁻¹ s⁻¹. In addition, in the data set with lys-plasminogen, P00747, the Km of plasminogen activation in the absence of a cofactor turned out to be 6.8 µM and the Km of plasminogen activation in the presence of fibrin was 0.024 µM.

B4: t-PA/R275E, single-chain form (protein)
chain: SYQVICRDEKTQMIYQQHQSWLRPVLRSNRVEYCWCNSGRAQCHSVPVKSCSEPRCFNGGTCQQALYFSDFVCQCPEGFAGKCCEIDTRATCYEDQGISYRGTWSTAESGAECTNWNSSALAQKPYSGRRPDAIRLGLGNHNYCRNPDRDSKPWCYVFKAGKYSSEFCSTPACSEGNSDCYFGNGSAYRGTHSLTESGASCLPWNSMILIGKVYTAQNPSAQALGLGKHNYCRNPDGDAKPWCHVLKNRRLTWEYCDVPSCSTCGLRQYSQPQFEIKGGLFADIASHPWQAAIFAKHRRSPGERFLCGGILISSCWILSAAHCFQERFPPHHLTVILGRTYRVVPGEEEQKFEVEKYIVHKEFDDDTYDNDIALLQLKSDSSRCAQESSVVRTVCLPPADLQLPDWTECELSGYGKHEALSPFYSERLKEAHVRLYPSSRCTSQHLLNRTVTDNMLCAGDTRSGGPQANLHDACQGDSGGPLVCLNDGRMTLVGIISWGLGCGQKDVPGVYTKVTNYLDWIRDNMRP
Regarding B4, the “stimulation of plasminogen activation” value with fibrinogen is given as “stimulated strongly”. In data set [1], the Fold stimulation of kcat/Km by fibrin is 6300 fold and 3800 fold; the “fibrin selectivity factor (specific activity in the presence of fibrin over that in the presence of fibrinogen)” value is listed as 1.0 for single chain t-PA/R275E; the “stimulation of plasminogen activation” value is reported as “stimulated strongly”. For the same protein, the “stimulation of plasminogen activation” value in data set [2] was “moderately”. For the same protein, in the data set with lys-plasminogen, P00747, the Kcat of plasminogen activation in the absence of a cofactor is 0.014 s⁻¹ and 0.038 s⁻¹; the Kcat of plasminogen activation in the presence of fibrin was 0.16 s⁻¹ and 0.1 s⁻¹; the Kcat/Km of plasminogen activation in the absence of a cofactor is 1500 M⁻¹ s⁻¹ and 1300 M⁻¹ s⁻¹; the Kcat/Km of plasminogen activation in the presence of fibrin is 9.4e+06 M⁻¹ s⁻¹ and 5e+06 M⁻¹ s⁻¹. The Km of plasminogen activation in the presence of fibrin in the data set with lys-plasminogen, P00747 is 0.017 µM and 0.02 µM.

B5: t-PA/R275E,H417E, single-chain form (protein)
chain: SYQVICRDEKTQMIYQQHQSWLRPVLRSNRVEYCWCNSGRAQCHSVPVKSCSEPRCFNGGTCQQALYFSDFVCQCPEGFAGKCCEIDTRATCYEDQGISYRGTWSTAESGAECTNWNSSALAQKPYSGRRPDAIRLGLGNHNYCRNPDRDSKPWCYVFKAGKYSSEFCSTPACSEGNSDCYFGNGSAYRGTHSLTESGASCLPWNSMILIGKVYTAQNPSAQALGLGKHNYCRNPDGDAKPWCHVLKNRRLTWEYCDVPSCSTCGLRQYSQPQFEIKGGLFADIASHPWQAAIFAKHRRSPGERFLCGGILISSCWILSAAHCFQERFPPHHLTVILGRTYRVVPGEEEQKFEVEKYIVHKEFDDDTYDNDIALLQLKSDSSRCAQESSVVRTVCLPPADLQLPDWTECELSGYGKEEALSPFYSERLKEAHVRLYPSSRCTSQHLLNRTVTDNMLCAGDTRSGGPQANLHDACQGDSGGPLVCLNDGRMTLVGIISWGLGCGQKDVPGVYTKVTNYLDWIRDNMRP
As for B5, the Fold stimulation of kcat/Km by fibrin in data set [1] was 25400 fold. In the data set with lys-plasminogen, P00747, the Kcat of plasminogen activation in the absence of a cofactor came out at 0.002 s⁻¹, the Kcat of plasminogen activation in the presence of fibrin amounted to 0.17 s⁻¹, the Kcat/Km of plasminogen activation in the absence of a cofactor was determined as 240 M⁻¹ s⁻¹ and the Kcat/Km of plasminogen activation in the presence of fibrin came to 6.1e+06 M⁻¹ s⁻¹. Further, in the data set with lys-plasminogen, P00747, the Km of plasminogen activation in the absence of a cofactor worked out at 8.5 µM; the Km of plasminogen activation in the presence of fibrin amounted to 0.028 µM; the “fold reduction of activity toward plasminogen without co-factor, against single chain t-PA/R275E” value is reported as “reduced by a factor of approximately 14 or 6, respectively”.

B6: t-PA/R275E,H417D, single-chain form (protein)
chain: SYQVICRDEKTQMIYQQHQSWLRPVLRSNRVEYCWCNSGRAQCHSVPVKSCSEPRCFNGGTCQQALYFSDFVCQCPEGFAGKCCEIDTRATCYEDQGISYRGTWSTAESGAECTNWNSSALAQKPYSGRRPDAIRLGLGNHNYCRNPDRDSKPWCYVFKAGKYSSEFCSTPACSEGNSDCYFGNGSAYRGTHSLTESGASCLPWNSMILIGKVYTAQNPSAQALGLGKHNYCRNPDGDAKPWCHVLKNRRLTWEYCDVPSCSTCGLRQYSQPQFEIKGGLFADIASHPWQAAIFAKHRRSPGERFLCGGILISSCWILSAAHCFQERFPPHHLTVILGRTYRVVPGEEEQKFEVEKYIVHKEFDDDTYDNDIALLQLKSDSSRCAQESSVVRTVCLPPADLQLPDWTECELSGYGKDEALSPFYSERLKEAHVRLYPSSRCTSQHLLNRTVTDNMLCAGDTRSGGPQANLHDACQGDSGGPLVCLNDGRMTLVGIISWGLGCGQKDVPGVYTKVTNYLDWIRDNMRP
The protein B6 had a Fold stimulation of kcat/Km by fibrin in data set [1] of 48200 fold. Further, in the data set with lys-plasminogen, P00747, the Kcat of plasminogen activation in the absence of a cofactor is 0.001 s⁻¹, the Kcat of plasminogen activation in the presence of fibrin is 0.23 s⁻¹, the Kcat/Km of plasminogen activation in the absence of a cofactor amounted to 110 M⁻¹ s⁻¹ and the Kcat/Km of plasminogen activation in the presence of fibrin amounted to 5.3e+06 M⁻¹ s⁻¹. In addition, in the data set with lys-plasminogen, P00747, the Km of plasminogen activation in the absence of a cofactor is 9.4 µM; the Km of plasminogen activation in the presence of fibrin came out at 0.043 µM; the “fold reduction of activity toward plasminogen without co-factor, against single chain t-PA/R275E” value is “reduced by a factor of approximately 14 or 6, respectively”.
